Target: nucleolin (NCL) (Homo sapiens, UniProt P19338 1-710)
Experiment: MST; MST: 300 nM FAM-aptamer, NCL 1.95 nM-4 uM, binding buffer not specified, 25 C, 15 min; AP1-AP6 and Mut folded in 100 mM KCl, 10 mM K3PO4 pH 7.0; AS1411 in 100 mM NaCl, 10 mM Tris-HCl pH 7.0; cell competition at 4 C, 1 h
Details: protein: commercial; label: 5'-FAM (amide bond linker); G4

Chain of nucleolin (NCL) (P19338 whole entry): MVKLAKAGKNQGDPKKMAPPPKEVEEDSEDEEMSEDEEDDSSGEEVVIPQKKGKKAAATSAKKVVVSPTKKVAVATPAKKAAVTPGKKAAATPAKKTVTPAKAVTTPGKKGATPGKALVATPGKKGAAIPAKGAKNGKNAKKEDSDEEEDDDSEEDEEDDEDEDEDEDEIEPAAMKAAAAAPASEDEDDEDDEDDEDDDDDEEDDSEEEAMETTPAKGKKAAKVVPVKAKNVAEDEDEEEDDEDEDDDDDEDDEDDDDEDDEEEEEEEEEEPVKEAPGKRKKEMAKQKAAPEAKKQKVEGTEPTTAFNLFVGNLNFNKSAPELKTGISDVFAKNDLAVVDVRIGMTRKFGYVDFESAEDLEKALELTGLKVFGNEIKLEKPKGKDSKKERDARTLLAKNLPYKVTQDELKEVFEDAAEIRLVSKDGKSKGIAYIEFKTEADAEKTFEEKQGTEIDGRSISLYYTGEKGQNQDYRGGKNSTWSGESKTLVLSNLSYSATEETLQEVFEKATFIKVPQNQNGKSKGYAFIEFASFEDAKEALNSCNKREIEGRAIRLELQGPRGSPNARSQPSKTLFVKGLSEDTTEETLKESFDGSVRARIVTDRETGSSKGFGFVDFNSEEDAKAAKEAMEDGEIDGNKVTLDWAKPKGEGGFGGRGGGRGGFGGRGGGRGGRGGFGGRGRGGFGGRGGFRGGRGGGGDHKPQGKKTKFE

In the case of GUUAGGGUUUGGGAUUG (structured_RNA) [AP1-F], the Kd is reported as 474 ± 47.7 nM.

Same assay, conditions: protein: commercial; label: 5'-FAM (amide bond linker); G4, loop-length variant

Point of comparison: GUUAGGGUUUAUGGGAUUG (structured_RNA) [AP3-F], Kd 499 ± 95.5 nM. Against it:
- GUUAGGGUUUUGGGAUUG (structured_RNA) [AP2-F] — within error, 621 ± 269 nM
- GUUAGGGUUUAUUUGGGAUUG (structured_RNA) [AP5-F] — 1.9-fold higher, 926 ± 140 nM
- GUUAGGGUUUAUUAUGGGAUUG (structured_RNA) [AP6-F] — within error, 507 ± 132 nM
- GUUAGGGUUUAUUGGGAUUG (structured_RNA) [AP4-F] — within error, 822 ± 290 nM
